Ends that are not written are not given here.
Target: T1, HEG1 cytoplasmic tail 7-mer peptide cytoplasmic tail 7-mer (Homo sapiens, UniProt Q9ULI3, also: Cy5-labelled)
T1 chain: SRRRDYF
Test: fluorescence polarization

B1: KRIT1 417-736 (protein)
chain: KPYEKVRIYRMDGSYRSVELKHGNNTTVQQIMEGMRLSQETQQYFTIWICSENLSLQLKPYHKPLQHVRDWPEILAELTNLDPQRETPQLFLRRDVRLPLEVEKQIEDPLAILILFDEARYNLLKGFYTAPDAKLITLASLLLQIVYGNYESKKHKQGFLNEENLKSIVPVTKLKSKAPHWTNRILHEYKNLSTSEGVSKEMHHLQRMFLQNCWEIPTYGAAFFTGQIFTKASPSNHKVIPVYVGVNIKGLHLLNMETKALLISLKYGCFMWQLGDTDTCFQIHSMENKMSFIVHTKQAGLVVKLLMKLNGQLMPTERNS
Kd: 13 nM

Source: paper PMC10644391 (2023)
